This assay concerns the target T1, full-length RPN1 (UniProt Q13200 1-908).
T1 construct: RPN1, full length, as isolated protein in the BLI assay
Put plainly: BLI; full-length RPN1 and GST-tagged midnolin C-Helix (375–413). Conditions: both partners purified.

The source of these data is publication PMC12888917, “Structure-based engineering of the midnolin-proteasome pathway for targeted protein degradation” (Protein & Cell, 2025).

T1 sequence (Q13200 whole entry): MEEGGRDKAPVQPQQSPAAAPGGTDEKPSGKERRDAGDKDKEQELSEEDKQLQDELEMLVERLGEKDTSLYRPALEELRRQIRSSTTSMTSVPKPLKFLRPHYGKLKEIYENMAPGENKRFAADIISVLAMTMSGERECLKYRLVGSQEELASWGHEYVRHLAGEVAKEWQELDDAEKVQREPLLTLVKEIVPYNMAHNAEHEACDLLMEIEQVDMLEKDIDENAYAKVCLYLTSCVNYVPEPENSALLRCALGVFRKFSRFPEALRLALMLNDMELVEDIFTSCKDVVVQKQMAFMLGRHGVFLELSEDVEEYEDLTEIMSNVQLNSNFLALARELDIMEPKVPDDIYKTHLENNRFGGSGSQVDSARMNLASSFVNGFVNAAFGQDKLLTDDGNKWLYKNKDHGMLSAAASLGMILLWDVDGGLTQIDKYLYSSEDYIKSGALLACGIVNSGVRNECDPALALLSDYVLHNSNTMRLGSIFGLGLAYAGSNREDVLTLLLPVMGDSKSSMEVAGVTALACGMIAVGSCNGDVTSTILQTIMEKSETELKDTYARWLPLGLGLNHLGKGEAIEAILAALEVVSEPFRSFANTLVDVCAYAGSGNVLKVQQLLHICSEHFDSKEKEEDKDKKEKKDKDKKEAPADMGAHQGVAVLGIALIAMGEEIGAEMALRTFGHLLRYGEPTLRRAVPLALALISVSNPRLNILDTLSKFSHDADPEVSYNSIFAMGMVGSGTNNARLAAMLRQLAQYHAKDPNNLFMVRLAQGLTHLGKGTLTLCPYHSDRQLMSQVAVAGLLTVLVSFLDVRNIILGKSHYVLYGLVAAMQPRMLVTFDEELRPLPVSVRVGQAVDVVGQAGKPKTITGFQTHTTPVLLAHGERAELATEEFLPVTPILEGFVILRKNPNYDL

For orientation: Kd means the equilibrium constant for the complex coming apart. On to PPGDRLRQTENRATRCKVERLQLLLQQKRLRRKARRDAR (domain or fragment, human, UniProt Q504T8 375-413, looked up, also called MIDN C-Helix) [GST-tagged midnolin C-Helix (375–413)], for which the dissociation constant (Kd) was around 88.5 nM.
